The source of these data is US20210277140A1.

The target in this assay is CD47 on Raji B cells (human) (UniProt Q08722). Kind of assay: cell-based or functional assay.

B1: anti human CD47 (mouse antibody), clone B6H12 (antibody, from another filing, IgG1, V domains shown)
VH: EVQLVESGGDLVKPGGSLKLSCAASGFTFSGYGMSWVRQTPDKRLEWVATITSGGTYTYYPDSVKGRFTISRDNAKNTLYLQIDSLKSEDTAIYFCARSLAGNAMDYWGQGTSVTVSS
VL: DIVMTQSPATLSVTPGDRVSLSCRASQTISDYLHWYQQKSHESPRLLIKFASQSISGIPSRFSGSGSGSDFTLSINSVEPEDVGVYYCQNGHGFPRTFGGGTKLEIK
In turn, B1 registered a whole cell eating of Raji B cells by CAR-P^FcRγ macrophages, antibody at 20 µg/ml of 2.5 fold.
